Test [1] concerns the target α-crystallin (bovine lens) (bovine (endogenous in calf lens)) (UniProt P02470).
Test [2] shares this target. The source holds these as a separate data set.

Chain of UniProt P02470 (P02470 whole entry, chain 1 of 2): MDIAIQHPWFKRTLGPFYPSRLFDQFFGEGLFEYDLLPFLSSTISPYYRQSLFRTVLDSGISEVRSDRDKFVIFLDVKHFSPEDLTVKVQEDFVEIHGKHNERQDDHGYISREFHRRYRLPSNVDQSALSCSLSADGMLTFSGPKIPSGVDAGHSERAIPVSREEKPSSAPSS
Chain of UniProt P02470 (P02510 whole entry, chain 2 of 2, further chain): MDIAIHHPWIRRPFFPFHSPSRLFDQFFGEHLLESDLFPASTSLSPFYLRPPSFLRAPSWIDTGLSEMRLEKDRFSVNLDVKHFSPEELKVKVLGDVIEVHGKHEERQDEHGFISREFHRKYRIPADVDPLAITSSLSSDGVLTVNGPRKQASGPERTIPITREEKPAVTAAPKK

Regarding αA-(66-80) peptide, in test [1], the Bis-ANS fluorescence (hydrophobicity) of α-crystallin (100 µg) with 10 or 20 µg of peptide, 50 mM phosphate buffer pH 7.2, 60 min is 30%. Besides, the precipitation of soluble α-crystallin from 200 µg of CLE after incubation with increasing amounts of peptide (up to 50 µg), 16 h, 37°C; supernatant analysed by MALS in test [2] is above 50%.

The values are drawn from PMC3084282.
